The sequences below were run on Escherichia coli TOP10 (assay: shrunken log2 fold change of peptide-encoding DNA abundance (4.5 h post-induction vs induction); higher = less antimicrobial activity (less host growth inhibition)). Settings: time post-induction: 4.5 h; library: site-saturation at positions 5, 18, 19, 20.
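Further: peptides expressed intracellularly from a pBAD plasmid library in pooled LB shake-flask culture, induced with 0.3% L-arabinose, DNA abundance read by NGS, three biological replicates, DESeq2 with apeglm shrinkage.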

| Sequence | shrunken log2 fold change |
| --- | --- |
| RRIRMRPPRLPRPRPRPIWAPRP | 0.114 |
| RRIRFRPPRLPRPRPRPFDTPRP | -0.486 |
| RRIRERPPRLPRPRPRPGTLPRP | -0.251 |
| RRIRCRPPRLPRPRPRPKHEPRP | -0.000422 |
| RRIRGRPPRLPRPRPRPDQCPRP | 0.196 |
| RRIRTRPPRLPRPRPRPCVTPRP | -0.208 |
| RRIRNRPPRLPRPRPRPRCNPRP | -0.0207 |
| RRIRTRPPRLPRPRPRPTSFPRP | 0.0555 |
| RRIRTRPPRLPRPRPRPYGMPRP | -0.0576 |
| RRIRWRPPRLPRPRPRPGGFPRP | 0.664 |
| RRIRMRPPRLPRPRPRPYWKPRP | 0.0275 |
| RRIRPRPPRLPRPRPRPQFFPRP | -0.0064 |
| RRIRVRPPRLPRPRPRPFRWPRP | -0.0443 |
| RRIRGRPPRLPRPRPRPDKTPRP | 0.104 |
| RRIRARPPRLPRPRPRPVLNPRP | -0.0316 |
| RRIRSRPPRLPRPRPRPMPRPRP | 0.346 |
| RRIRNRPPRLPRPRPRPSAPPRP | 0.0188 |
| RRIRDRPPRLPRPRPRPPCYPRP | -0.0706 |
| RRIRMRPPRLPRPRPRPKCLPRP | 0.148 |
| RRIRRRPPRLPRPRPRPLRNPRP | 0.94 |
| RRIRLRPPRLPRPRPRPPKGPRP | 0.306 |
| RRIRKRPPRLPRPRPRPESVPRP | 0.234 |
| RRIRTRPPRLPRPRPRPHRHPRP | -0.211 |
| RRIRIRPPRLPRPRPRPLAGPRP | 0.00712 |
| RRIRERPPRLPRPRPRPKNIPRP | -0.723 |

| Sequence | shrunken log2 fold change |
| --- | --- |
| RRIRGRPPRLPRPRPRPCVCPRP | 0.617 |
| RRIRFRPPRLPRPRPRPYVFPRP | -0.408 |
| RRIRCRPPRLPRPRPRPTCPPRP | -0.26 |
| RRIRQRPPRLPRPRPRPKHGPRP | 0.00489 |
| RRIRDRPPRLPRPRPRPWLQPRP | 0.133 |
| RRIRYRPPRLPRPRPRPGFWPRP | 0.689 |
| RRIRIRPPRLPRPRPRPGACPRP | -0.243 |
| RRIRRRPPRLPRPRPRPDKCPRP | -0.0562 |
| RRIRCRPPRLPRPRPRPDWPPRP | 0.187 |
| RRIRMRPPRLPRPRPRPLVPPRP | 0.208 |
| RRIRMRPPRLPRPRPRPWGFPRP | 0.0809 |
| RRIRVRPPRLPRPRPRPGWYPRP | 0.0128 |
| RRIRRRPPRLPRPRPRPHAYPRP | -0.394 |
| RRIRARPPRLPRPRPRPDFLPRP | 0.257 |
| RRIRCRPPRLPRPRPRPDIYPRP | -0.174 |
| RRIRRRPPRLPRPRPRPMVHPRP | 0.113 |
| RRIRNRPPRLPRPRPRPALLPRP | 0.504 |
| RRIRTRPPRLPRPRPRPVQLPRP | -0.16 |
| RRIRWRPPRLPRPRPRPEAFPRP | 0.488 |
| RRIRHRPPRLPRPRPRPISHPRP | -0.0873 |
| RRIRVRPPRLPRPRPRPLIYPRP | -0.632 |
| RRIRHRPPRLPRPRPRPKTSPRP | -0.0692 |
| RRIRWRPPRLPRPRPRPCPRPRP | -0.0457 |
| RRIRLRPPRLPRPRPRPHRFPRP | 0.0608 |
| RRIRMRPPRLPRPRPRPETDPRP | 1.77 |

| Sequence | shrunken log2 fold change |
| --- | --- |
| RRIRGRPPRLPRPRPRPVEQPRP | 0.0754 |
| RRIRERPPRLPRPRPRPKKCPRP | -0.0779 |
| RRIRERPPRLPRPRPRPAGCPRP | -0.0935 |
| RRIRMRPPRLPRPRPRPKQDPRP | 1.14 |
| RRIRSRPPRLPRPRPRPCHQPRP | -0.0637 |
| RRIRQRPPRLPRPRPRPSFFPRP | -0.287 |
| RRIRFRPPRLPRPRPRPVWMPRP | -0.119 |
| RRIRKRPPRLPRPRPRPFRNPRP | -0.309 |
| RRIRVRPPRLPRPRPRPVLYPRP | -0.281 |
| RRIRMRPPRLPRPRPRPYMKPRP | -0.0154 |
| RRIRNRPPRLPRPRPRPSYIPRP | -0.637 |
| RRIRIRPPRLPRPRPRPNWWPRP | 0.159 |
| RRIRIRPPRLPRPRPRPCQRPRP | -0.268 |
| RRIRQRPPRLPRPRPRPPYMPRP | -0.184 |
| RRIRTRPPRLPRPRPRPDSEPRP | -0.182 |
| RRIRWRPPRLPRPRPRPPWMPRP | 0.371 |
| RRIRARPPRLPRPRPRPYQAPRP | -0.0488 |
| RRIRYRPPRLPRPRPRPQWEPRP | -0.0193 |
| RRIRSRPPRLPRPRPRPNYEPRP | -0.609 |
| RRIRRRPPRLPRPRPRPCLSPRP | -0.114 |
| RRIRTRPPRLPRPRPRPTRPPRP | 0.614 |
| RRIRPRPPRLPRPRPRPNHDPRP | -0.384 |
| RRIRERPPRLPRPRPRPIKCPRP | -0.0487 |
| RRIRERPPRLPRPRPRPWVIPRP | 0.0392 |
| RRIRARPPRLPRPRPRPFNYPRP | -0.0393 |

| Sequence | shrunken log2 fold change |
| --- | --- |
| RRIRCRPPRLPRPRPRPTSHPRP | -0.348 |
| RRIRQRPPRLPRPRPRPLHYPRP | -0.269 |
| RRIRQRPPRLPRPRPRPRDNPRP | -0.0667 |
| RRIRTRPPRLPRPRPRPQDHPRP | -0.805 |
| RRIRWRPPRLPRPRPRPKKGPRP | 0.22 |
| RRIRFRPPRLPRPRPRPCVSPRP | -0.0323 |
| RRIRSRPPRLPRPRPRPLITPRP | -0.012 |
| RRIRSRPPRLPRPRPRPQENPRP | -0.0522 |
| RRIRGRPPRLPRPRPRPVARPRP | 0.58 |
| RRIRKRPPRLPRPRPRPHAGPRP | 0.143 |
| RRIRPRPPRLPRPRPRPNTMPRP | -0.492 |
| RRIRDRPPRLPRPRPRPSDKPRP | 0.0657 |
| RRIRIRPPRLPRPRPRPYAKPRP | -0.207 |
| RRIRWRPPRLPRPRPRPYQVPRP | -0.268 |
| RRIRPRPPRLPRPRPRPFILPRP | -0.582 |
| RRIRIRPPRLPRPRPRPRTPPRP | 0.089 |
| RRIRWRPPRLPRPRPRPAQPPRP | 0.236 |
| RRIRCRPPRLPRPRPRPDGPPRP | 0.185 |
| RRIRTRPPRLPRPRPRPDEAPRP | -0.0661 |
| RRIRNRPPRLPRPRPRPICWPRP | -0.0674 |
| RRIRSRPPRLPRPRPRPQDYPRP | -0.356 |
| RRIRTRPPRLPRPRPRPRQHPRP | -0.374 |
| RRIRYRPPRLPRPRPRPNRMPRP | -0.22 |
| RRIRWRPPRLPRPRPRPNTQPRP | 0.448 |
| RRIRSRPPRLPRPRPRPHNTPRP | -0.337 |

| Sequence | shrunken log2 fold change |
| --- | --- |
| RRIRARPPRLPRPRPRPLKAPRP | 0.16 |
| RRIRSRPPRLPRPRPRPLAWPRP | 0.402 |
| RRIRRRPPRLPRPRPRPRRMPRP | 0.206 |
| RRIRPRPPRLPRPRPRPKLRPRP | 0.204 |
| RRIRERPPRLPRPRPRPNWEPRP | 0.0232 |
| RRIRQRPPRLPRPRPRPRGLPRP | 0.00877 |
| RRIRRRPPRLPRPRPRPFEIPRP | -0.00184 |
| RRIRRRPPRLPRPRPRPYTCPRP | 0.0906 |
| RRIRMRPPRLPRPRPRPLCGPRP | 0.606 |
| RRIRQRPPRLPRPRPRPLCHPRP | -0.142 |
| RRIRFRPPRLPRPRPRPQVGPRP | -0.0394 |
| RRIRKRPPRLPRPRPRPTFQPRP | 0.05 |
| RRIRRRPPRLPRPRPRPKNDPRP | 0.277 |
| RRIRPRPPRLPRPRPRPPSSPRP | -0.207 |
| RRIRQRPPRLPRPRPRPTVWPRP | 0.339 |
| RRIRERPPRLPRPRPRPWDCPRP | -0.0136 |
| RRIRTRPPRLPRPRPRPSCEPRP | -0.252 |
| RRIRKRPPRLPRPRPRPNFVPRP | 0.309 |
| RRIRYRPPRLPRPRPRPHFLPRP | -0.13 |
| RRIRNRPPRLPRPRPRPPHRPRP | 0.00305 |
| RRIRWRPPRLPRPRPRPCDTPRP | -0.165 |
| RRIRLRPPRLPRPRPRPYQWPRP | -0.241 |
| RRIRMRPPRLPRPRPRPLREPRP | 3.88 |
| RRIRGRPPRLPRPRPRPNWQPRP | 0.0611 |
| RRIRHRPPRLPRPRPRPRNMPRP | -0.65 |

From the supplement of paper PMC9112550, “Optimization of the antimicrobial peptide Bac7 by deep mutational scanning” (BMC Biology, 2022)
